Experimental data taken from US9989536B2, “Specific and high affinity binding proteins comprising modified SH3 domains of FYN kinase” (EIDGENOESSISCHE TECHNISCHE HOCHSCHULE ZURICH, priority 2006, dated 2018).

Tests used:
[1] = tested on: F9 murine teratocarcinoma; test: Quantitative biodistribution of 125I-labeled protein in tumor-bearing mice; type: in vivo; conditions: i.v., 24 h
[2] = target: T1, IL-17A (Homo sapiens, UniProt Q16552); test: IL-17A inhibition cell assay (IL-6 production in NHDF, 50 ng/ml IL-17A); type: cell-based; conditions: NHDF cells in presence of IL-17A
T1 construct: purchased R&D Systems

[3] = target: T1, IL-17A; test: Acute inflammation model: human IL-17A induced KC production in mice; type: in vivo, mouse; conditions: C57BL/6 mice, co-injected s.c. with 3 μg human IL-17A (17 μg 2C1, 16 μg wt), 2 hours
Procedure: Human IL-17A is able to bind and stimulate the mouse IL-17 receptor, leading to an elevation and subsequent secretion of mouse KC (CXCL1) chemokine (Allan B. et al. (2007) WO2007/070750 of Eli Lilly, US). The observed KC levels 2 hours after s.c. IL-17A injection (3 μg) were between […] in the serum, compared to around […] KC basal levels.
The blood samples were centrifuged for 10 min at 9500×g and the serum was stored at −20° until ELISA analysis was performed. KC levels in serum were determined using the commercially available Quantikine mouse CLCL1/KC kit (R&D Systems).
After 20-60 minutes, 3 μg/mouse of human IL-17A (R&D Systems) was injected s.c. and 2 hours after IL-17A injection, blood samples were taken from the vena saphena with the capillary Microvette CB 300 (Sarstedt). The blood samples were centrifuged for 10 min at 9500×g and the serum was stored at −20° until ELISA analysis was performed. KC levels in serum were determined using the commercially available Quantikine mouse CLCL1/KC kit (R&D Systems).

[4] = tested on: Normal Human Dermal Fibroblasts (NHDF); test: XTT viability of NHDF cells; type: cell-based; conditions: polypeptides at 750 nM, IL-17 receptor 10 nM, 24 hours
Procedure: IL-17A induces the production of IL-6 in fibroblasts in a dose-dependent manner (Yao et al. (1995) Immunity, 3, p. 811-821). […] Cell culture supernatants were taken after 24 h of stimulation and assayed for IL-6 with ELISA. […] Only viable and metabolic active cells are capable of reducing the tetrazolium salt XTT to orange-colored compounds of formazan (Scudiero, et al. (1988), Cancer Res. 48, p. 4827-4833).
400 μl of a cell suspension containing about 1×10^4 Normal Human Dermal Fibroblasts (PromoCell, NHDF-c, C12300) were distributed per well (24 well plate, Nunc or TPP) and cultured for 24 hours at 37° C. (medium: Fibroblast Growth Medium C-23010, PromoCell). […] After 24 hours incubation at 37° C. the supernatant was aspirated and the IL-6 concentration was determined by ELISA according to the manufacturer's instructions (IL-6 ELISA kit, R&D Systems). Immediately after the aspiration of the supernatant the XTT-containing medium was added (Cell Proliferation Kit II, Roche) and cell viability was determined according to the manufacturer's instructions.

[5] = Humira Drug Approval Package; cited from earlier work

T1 sequence (Q16552 20-155 limits assumed): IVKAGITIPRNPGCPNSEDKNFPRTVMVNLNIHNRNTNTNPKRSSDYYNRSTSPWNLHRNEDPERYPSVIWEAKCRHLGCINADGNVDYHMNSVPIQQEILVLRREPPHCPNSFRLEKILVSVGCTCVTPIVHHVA

## Fyn SH3 wt: wild type SH3 domain of Fyn kinase, SEQ ID NO: 1 (SEQ ID NO: 339 in Example 5)
[1]
  accumulation in the tumor: no enrichment
[2]
  inhibition of IL-6 production: no inhibition of IL-6 production
[3]
  KC levels in mouse serum: as high as in the group receiving IL-17A only

## IL-17A receptor-Fc chimera: commercially available human IL-17A receptor Fc chimera (R&D Systems)
[4]
  cell viability (XTT assay): all cells were viable

## adalimumab
[5]
  half-life of other human antibodies in mice: 102 to 193 h
